Test results taken from the nanobody polyreactivity screen of Harvey et al. (2022).

Assay: yeast display, Sf9 membrane polyspecificity reagent, FACS + sequencing; frameworks hold sequencing errors
Outline: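 Galactose induction of a Saccharomyces cerevisiae BJ5465 synthetic nanobody display library ran 36–48 hours. The cells were then stained for 1 hour at 4 °C with 10% biotinylated, detergent-solubilized Sf9 membrane reagent, pulled down on streptavidin microbeads and FACS-sorted into low and high (top ~1%) gates on expression and reagent-binding fluorescence. Labels for polyreactivity follow the gate of origin.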

Sequence | polyreactivity (PSR sort gate)
HVQLQESGGGMVQASGSPRLSCPASGNIFDADIMGWYRQAPGKQCELVASITDGGSTNYADSEKGRFTISSDNAKNTVYLQMNSLKPEDTAVYYCAAIAYPDIPTYFDYDSDYFYWGQGTHVTVSS | high polyreactivity
HVQLVDSGGVLVQAGGSLRLSCAASGSIYDANAMGRYRQAPGKERELVAAISSSGGITYYADSVKGRFTISRDNAKNTVYLQMNSLKPEDTAVYYCVAEYGYIDYSYLFWSDYWGQGTQVTVSS | high polyreactivity
HVQLVESAGGLVQAGGRLSLSCAAYGSICDRYAMGWYRQAPGKEREKVAAIYSSGGRTYYADSVKGRFTISRDNAKNTVYLQMKSLKPEDTAVYYCNAEFWGGTPVAFSADYEYWGQGTQVTVSS | high polyreactivity
HVQLVESGGGLVQAGASLRLSCAASGSTFSTYGMGCSRQAPGKVRELVADISDSTGSTYYADSVKGRFTISRDNAKYTVYLQMNSLKPEDNAVYYCAADSGEPSWGYDYWGQGTQVTVSS | low polyreactivity
HVQLVESGGGLVQAGGCLRLSCAASGIIFLYNAMGWYRQAPGKERELVATITWSGGSTYYADSVKGRFTISRDNAKITVYLQMKSLKPEDTAVYYCAADYYYGYEFGYWGQGTQVTVSS | low polyreactivity
HVQLVESGGGLVQAGGSLRISCAASGRIFGRNAMGWYRQAPGTERELVATISGGGSTYYADSVKGRFTISRDNAKNTVYFQMNSLKPEDTAVFYCAVGHRWWGAYAGYDYWGQGTQVTVSS | low polyreactivity
HVQLVESGGGLVQAGGSLRISCAASGRTFYKNAKGRYRQAPGKEREFVASISVSGGRTYYADSVKGRFTISRDNAKNTVYLQMNILNPEDSAVYYCNARASPLSQRDYWGQGTQVTVSS | low polyreactivity
HVQLVESGGGLVQAGGSLRLICGASGFTFPNYAMGGYRHAPGKERELVAAITSGGGRTNYADSVKGRFTISRDNAKITVYLQMNSLKPADTAVYYCNAEKTYLGSRYRPYNYWGQGTQVTVSS | low polyreactivity
HVQLVESGGGLVQAGGSLRLSCAASGFMFSGYAMGWYRQAPGKVRELVAAITWSGSNTFYADSVKGRFTISRDNAKNTVYLQRNSLKPEDTAVYYCNAVSKYKRSDYYYWGQGTQVTVSS | high polyreactivity
HVQLVESGGGLVQAGGSLRLSCAASGFTIKYYGMGWYRQAPGKERELVAAISRRGGSTYYADSVKGRFTISRDNAKNTVYLQMNSLKPEDTAVYYCNAQFARSSGFNYWGQGTQVTVSS | high polyreactivity
HVQLVESGGGLVQAGGSLRLSCAASGINFSWYPMGWYRQAPGKERELVAAISSSGGTTFYADSVKGRFTISRDKAKNTVYLQMNSLKPEDTAVYYCAVVGPPYYTWRVWRPAYDYWGQVTQVTVSS | high polyreactivity
HVQLVESGGGLVQAGGSLRLSCAASGLNFLYYGMGWYRQAPGKERELVAAISSGGGTYYADSVKGRFTISRDNAKNTVYLQMNSLKPEDTAVYYCAVDPQWTYWSTYRYDYWGQGTQVTVSS | low polyreactivity
HVQLVESGGGLVQAGGSLRLSCAASGRIFKYYAMGWYRQAPGKERELLAAITYSGGSTNYADSVKGRFTISRDNAKNTVYLQMKSLKPEDTAVYYCNAYSYRNFLSHYNYWGQGTQVTVSS | high polyreactivity
HVQLVESGGGLVQAGGSLRLSCAASGRIFPGNVMGWYRHAPGKERELVAGIDSSGGSTSYADSVKGRFTISRDNAKNSVYLQMNSLKPEDTAVYYCAKVRDQARYQWGYQEFDYWGEGTQVTVSS | low polyreactivity
HVQLVESGGGLVQAGGSLRLSCAASGRIFTLYDMGWYRQAPGKERELVAAISNSAGSTYYADSVKGRFTISRDNAKNTVYLQMNSLKPEDTAVYYCAAELWSWGGARDYWGQGTQVTVSS | high polyreactivity
HVQLVESGGGLVQAGGSLRLSCAASGRTFARYAMGWYRQAPGKERELVAAITRGGRTNYADSVKGRFTSSRDNAKNTVYLQMNSLKPEDTAVYYCNAYFVNPYDYWGQGTQVTVSS | high polyreactivity
HVQLVESGGGLVQAGGSLRLSCAASGRTFGAYTMGWYRQAPGKERELVAAINWSGGDTYYAYSVKGRFTISRDNAKNTVYLQMNSQKPEDTAVYYCNAEPRYGTYDYWGQGTQVTVSS | low polyreactivity
HVQLVESGGGLVQAGGSLRLSCAASGRTFTYNTMGVYRKEPGKERELVAAISSSGGSTYYADSVKGRFTISRDNAKNTVYLQMNSLKPEDTAVYYCAKRYFSSSRYYYWGQGTQVTVSS | high polyreactivity
HVQLVESGGGLVQAGGSLRLSCAASGRTFYIYAMGWYRKAPGKERELVAAITWSGGTTYYADSVKGRFTISRDNAKNPVYLQMTSLKPEDTAVYYCAADSYGFYLESYYWGQGTQVTVSS | low polyreactivity
HVQLVESGGGLVQAGGSLRLSCAASGRTLYRNAMGWYRQAPGKERELVARITWSGASTYYADYVKGRFTISRDNAKNTVYLQMNSLKPEVTAVYYCAAQYLSRRYGPYYTYNYWGLGTQVTVSS | high polyreactivity
HVQLVESGGGLVQAGGSLRLSCAASGSIFDYNAIGWYRQAPGKERELVASSSGDSGSTYYADSVKWRFTISRDYAKNTVYLQMNSLKPEDTAVYYCAAPYVSWDYRYYYWGQGTQVTVSS | low polyreactivity
HVQLVESGGGLVQAGGSLRLSCAASGSIFESNAMGWYRQAPGKERELVAAYADSVKGRFTISRDNAKNTVYVQMNSLKPEETAVYYCAARIGTGVLPGRGANSHMDYWGQGTQVTVSS | low polyreactivity

Sequence | polyreactivity (PSR sort gate)
HVQLVESGGGLVQAGGSLRLSCAASGSIFYYNVMGWYRQAPGKERELVAAIDIDGSTYYADSVKGRFTISRDNAKNTVYLQMNSMKPEDTAVYYCNAQAPYWFSFYYDHKYDYWGQGTQVTVSS | low polyreactivity
HVQLVESGGGLVQAGGSLRLSCAASGSNFDKYAMGGYRQAPGKERELGAAISRGGSSTYYADSVKGRFTISRDNAKNTVYLQMNSLKPEDTAVYYCAARIRNWPAMDYWGQGTQVTVSS | high polyreactivity
HVQLVESGGGLVQAGGSLRLSCAASGSTFGYNARGWYRQAPGKERELVAVITDSGGSTKYADSVKGRFTISRDNAKKTVYLQMNSLKPEDTAVYYCAKRSSQTRRAYDYWGQGTQVTVSS | low polyreactivity
HVQLVESGGGLVQAGGSLRLSCAASGSTFILNTMGWYIQAPGKERKLVAAITRRGSSTYYADSVKGRFTISRDNAKNTGYLQMNSLKPEDTAVYFCAAFSYNLGMDYWGQGTKVTVSS | high polyreactivity
HVQLVESGGGLVQAGGSLRLSCAASGSTFTYYAMGWYRQAPGKERELVAAITGSDGRTYYADSVKGRFTISRDNAKKTVYLEMNSLKPEDTAVYYCATDVPIREIDEFGYWGQGTQVTVSS | low polyreactivity
HVQLVESGGGLVQAGGSLRLSCAASGSTFYRNAMGWYREAPGKEWEFVADITLGGGSTYYADSVKGRFTISRDNAKNTVYLQMNSLKPEDTAVYYCAVDYWQLNYDYWGQGTQVTVSS | low polyreactivity
HVQLVESGGGLVQAGGSLRLSCAASRRTFGWYAMGWYRQAPGKERELVAAISLSGGSTYYADSVKGRFTISRDNAKNTVYLQRNSLKPDVTAVYDCAAADYWLGYDYWGQGSQVTVSS | low polyreactivity
HVQLVESGGGLVQAGGSLRLSCAASVFILSPNTMGWYRQAPGKERELVAAISSDVSTYADSVKGRFTISRDNAKNTVYLQMNSLKPEDTAVYYCNADDFGYASYEYWGQGTQVTVSS | low polyreactivity
HVQLVESGGGLVQEGGSLRLSCAASGSILALYAMGWDRQAPGKERELVAAISSGDSTSYADSVKGRFTISRDNAKNTVYLQMNSLKPEDTAVYYCAADRPIYPYPGKGFRYDYWGQGTQVTVSS | low polyreactivity
HVQLVESGVGLVQAGGSLRLSCEASGFIFIRYAMGWYRQAPGQERELVASISSGGSTYYADSVKGRFTISRDNAKNTVYFQMNSLKPEDTAVFYCAAVFSKGLEGDYWGQGTEVTVSS | high polyreactivity
HVQQQESGGGLEQAGGSLRLSCAASGNISYSRNMGWYRQAPGKERELVAAIDRGAITYYADSVKGRFTISRDNAKNTVYLQIYSLKPEDTAVYYCAAVYHDRWDHRYWGQGTQVTVSR | high polyreactivity
HVQQQESGGGLVQAGGSLRLSCAASGYISVFIGMGWYRQSPGKERELVASIAYGAITYYTDSVKGRFTMSRDYAKNTEYLQMNSLKPEDTAVYYCATRRYYRYYNFWYYYWGQGTQVTVSS | high polyreactivity
HVRLQESGGGLVQAGGSLRQSCAACGAISPYYDMGWYRLAPGKEREFVASIAHGGTTYYADSVKGRFTTSRDNAKNTVYLQMKSMKTEDTAVYYCAVDYDVWHSHIYRGQGTQVTVSS | high polyreactivity
IIQAGGSLRLSCAASGRTFSGYARGWYRQAPGKERELIADITSGGSTYYADSVKGRFTISRDNAKNTVYLQMNSLKPEDTAVYYCSRDDRLAGDYWGQGTQVTVSS | low polyreactivity
KDQLVESGGGLVQAGGSLRLSSAASGIRFYVHSMGWYRQAPGKERELDASITSSGGSTYYADSVKGRFTISRDKATNSVYLQMNSLKPEDTAVYYCNKERWPVTYREYDYWGQGTQVTVSS | low polyreactivity
KVHLVESGGGLVQAGGSLRLSCAASGRIFRYYAMGWYRHAPGKERELVAAIRYLGASTYYADSVKGRFTISRDNAKNTVYLQMNSLKPEDTAVYYCNRTPRSKGNYWGQGTLVTVSS | high polyreactivity
KVQLVESGAGLVQAGGSLRLSCAASVSNFTSHAMGWSRQAPGKEREFVAAISVGGGITYYADSVKGRFTISRDHEKNTVYLQMNSLNPEDTAVYYCDADGEYPHSDDFEYWGQVTQVTVSS | low polyreactivity
KVQLVESGGGLDQAGGSLRLSCAASGIIFAYNVMGRYRQAPGKERELVAAIRWGGGSTYADSVKGRFSISRDNAKNTVYLQMTRLKPEDTAVYYCNVERWWWSRTYCVKYDYWGQGTQVNVSS | high polyreactivity
KVQLVESGGGLVQAGGRLRLSCAASGFIFVPYPMGWYRQAPGKERELVATITGRGDSTYYADSVKGRFTISRDNAMNTVYLQMNSLKTDDTAVYYCAVDPIRLWAYDYWGQGTQVNVSS | low polyreactivity
KVQLVESGGGLVQAGGSHRLSSAASGSTFDGYVMGLYRPAPGKERELVDAISSTGTRTYYADSVKGRFTISRDNATNTFYLQINSMKPEDTAVYYCAAEIDYRYRTVSYYYWGQGSQVTVSS | low polyreactivity
KVQLVESGGGLVQAGGSLLLSCAASGRTFTYNAIGWYRQARGTERELVAVITNSGGSTYYADSVKGRYTISRDNAKNTVYLQRNRLKPEDTAVYYCAADYFSRYWYRFYYWGQGTQVTVSS | high polyreactivity
